Test results as given in US20260184814A1, “BROADLY NE[…] INFLUENZA NEURAMINIDASE” (priority 2022, published 2026).

B1: FNI9-v4.1 (antibody, V domains shown)
VH: QVHLVQSGAEVKEPGSSVTVSCKASGGSFSNQAISWVRQAPGQGLEWMGGIFPISGTPTSAQRFQGRVTFTADESTTTVYMDLSSLRSDDTAVYYCARAGSDYFNRDLGWENYYFASWGQGTLVTVSS
VL: EIVMTQSPATLSLSSGERATLSCRASRSVSSNLAWYQQKPGQAPRLLIYDASTRATGFSARFAGSGSGTEFTLTISSLQSEDSAIYYCQQYNNWPPWTFGQGTKVEIK
B2: FNI9-v8.1 (antibody, V domains shown)
VH: QVHLVQSGAEVKEPGSSVTVSCKASGGTFNNQAISWVRQAPGQGLEWMGGIFPISGTPTSAQRFQGRVTFTADESTTTVYMDLSSLRSDDTAVYYCARAGSDYFNRDLGWENYYFASWGQGTLVTVSS
VL: EIVMTQSPATLSLSSGERATLSCRASRSVSSNLAWYQQKPGQAPRLLIYDASTRATGFSARFAGSGSGTEFTLTISSLQSEDSAIYYCQQYNNWPPWTFGQGTKVEIK
B3: FNI9-v9.1 (antibody, V domains shown)
VH: QVHLVQSGAEVKEPGSSVTVSCKASGGSFNNQAISWVRQAPGQGLEWMGGIFPISGTATSAQRFQGRVTITADESTTTVYMDLSSLRSDDTAVYYCARAGSDYFNRDLGWENYYFASWGQGTLVTVSS
VL: EIVMTQSPATLSLSSGERATLSCRASRSVSSNLAWYQQKPGQAPRLLIYDASTRATGFSARFAGSGSGTEFTLTISSLQSEDSAIYYCQQYNNWPPWTFGQGTKVEIK
B4: Fab FNI9-v4.1 (Fab, V domains shown)
VH: QVHLVQSGAEVKEPGSSVTVSCKASGGSFSNQAISWVRQAPGQGLEWMGGIFPISGTPTSAQRFQGRVTFTADESTTTVYMDLSSLRSDDTAVYYCARAGSDYFNRDLGWENYYFASWGQGTLVTVSS
VL: EIVMTQSPATLSLSSGERATLSCRASRSVSSNLAWYQQKPGQAPRLLIYDASTRATGFSARFAGSGSGTEFTLTISSLQSEDSAIYYCQQYNNWPPWTFGQGTKVEIK
B5: Fab FNI9-v8.1 (Fab, V domains shown)
VH: QVHLVQSGAEVKEPGSSVTVSCKASGGTFNNQAISWVRQAPGQGLEWMGGIFPISGTPTSAQRFQGRVTFTADESTTTVYMDLSSLRSDDTAVYYCARAGSDYFNRDLGWENYYFASWGQGTLVTVSS
VL: EIVMTQSPATLSLSSGERATLSCRASRSVSSNLAWYQQKPGQAPRLLIYDASTRATGFSARFAGSGSGTEFTLTISSLQSEDSAIYYCQQYNNWPPWTFGQGTKVEIK

Columns and labels:
[1] = target: B/Massachusetts/02/2012(Yamagata) (Influenza B virus); experiment: SPR (Biacore), NA on anti-Avi chip, 1:1 model; NA code BNA-3
[2] = target: IBV neuraminidase from B/Malaysia/2506/2004 (Victoria) (Influenza B virus B/Malaysia/2506/2004); experiment: SPR (Biacore), NA on anti-Avi chip, 1:1 model; NA code BNA-7
[3] = target: N2 neuraminidase from H3N2 A/Tanzania/205/2010 (Influenza A virus A/Tanzania/205/2010 (H3N2))
[4] = target: B/Perth/211/2011 (Influenza B virus); experiment: SPR (Biacore), NA on anti-Avi chip, 1:1 model; NA code BNA-2
[5] = target: N2 A/Switzerland/8060/2017 (82-469) (Influenza A virus); experiment: SPR (Biacore), NA on anti-Avi chip, 1:1 model; NA code NA-16 (+glyc245)
[6] = target: N9 Hong Kong/56/2015 (Influenza A virus); experiment: SPR (Biacore), NA on anti-Avi chip, 1:1 model; NA code N9
[7] = target: N2 A/Hong_Kong/2671/2019 (82-469) (Influenza A virus); experiment: SPR (Biacore), NA on anti-Avi chip, 1:1 model; NA code NA-18 (+glyc245)
[8] = target: N2 neuraminidase from A/South Australia/34/2019 (Influenza A virus A/South Australia/34/2019); experiment: SPR (Biacore), NA on anti-Avi chip, 1:1 model; NA code NA-17, 82-469 (+glyc245)
[9] = target: B/Brisbane/602008 or 33/2008 (Victoria) (Influenza B virus); experiment: SPR (Biacore), NA on anti-Avi chip, 1:1 model; NA code BNA-6
[10] = target: A/N1 Vietnam/1203/2004 (Influenza A virus); experiment: SPR (Biacore), NA on anti-Avi chip, 1:1 model; NA code NA-3
[11] = target: N9 NA (FIGS. 96A-96C); experiment: Bio-Layer Interferometry (BLI)
[12] = target: N9 NA (FIGS. 96A-96C); experiment: Bio-Layer Interferometry (BLI); printed as ka
[13] = target: N9 NA (FIGS. 96A-96C); experiment: Bio-Layer Interferometry (BLI); printed as kdis
[14] = target: N2 A/Hong_Kong/2671/2019 (82-469) (Influenza A virus); experiment: SPR; NA-18; design: unit not given beside the values
[15] = target: N2 neuraminidase from H3N2 A/Tanzania/205/2010 (Influenza A virus A/Tanzania/205/2010 (H3N2)); experiment: SPR, 1:1 binding; NA-5 "-glyc245"
[16] = target: N2 neuraminidase from A/South Australia/34/2019 (Influenza A virus A/South Australia/34/2019); experiment: SPR, 1:1 binding; NA-17 "+glyc245"
[17] = target: N2 neuraminidase from H3N2 A/Tanzania/205/2010 (Influenza A virus A/Tanzania/205/2010 (H3N2)); experiment: SPR; NA-5; design: unit not given beside the values
[18] = target: N2 A/Hong_Kong/2671/2019 (82-469) (Influenza A virus); experiment: SPR, 1:1 binding; NA-18 "+glyc245"
[19] = target: N2 neuraminidase from A/South Australia/34/2019 (Influenza A virus A/South Australia/34/2019); experiment: SPR; NA-17; design: unit not given beside the values

Row | Binder | fold-change in affinity compared to FNI9-v1.1 [1] | fold-change in affinity compared to FNI9-v1.1 [2] | fold-change in affinity compared to FNI9-v1.1 [3] | fold-change in affinity compared to FNI9-v1.1 [4] | fold-change in affinity compared to FNI9-v1.1 [5] | fold-change in affinity compared to FNI9-v1.1 [6] | fold-change in affinity compared to FNI9-v1.1 [7] | fold-change in affinity compared to FNI9-v1.1 [8] | fold-change in affinity compared to FNI9-v1.1 [9] | fold-change in affinity compared to FNI9-v1.1 [10] | Kd [11] [nM] | kon [12] [M⁻¹ s⁻¹] | koff [13] [s⁻¹] | KD compared to v1.1 [14] | Kd [15] [nM] | Kd [16] [nM] | KD compared to v1.1 [17] | Kd [18] [nM] | KD compared to v1.1 [19]
1 | B1 | 1.24 | 1.44 | 1.76 | 1.48 | 1.06 | 1.31 | 1.85 | 1.3 | 0.78 | 1.06 |  |  |  |  |  |  |  |  | 
2 | B2 | 1.17 | 1.35 | 0.98 | 1.03 | 0.98 | 1.1 | 0.4 | 1.2 | 0.92 | 1.98 | < 0.001 | 463000 | < 1e-07 |  |  |  |  |  | 
3 | B3 | 0.92 | 1.53 | 0.81 | 1.59 | 0.93 | 8.43 | 1.15 | 2.99 | 0.81 | 0.93 | 0.19 | 456000 | 8.66e-05 |  |  |  |  |  | 
4 | B4 |  |  |  |  |  |  |  |  |  |  |  |  |  | 1.91 | 5.35 | 133 | 1.63 | 19.9 | 1.04
5 | B5 |  |  |  |  |  |  |  |  |  |  |  |  |  | 0.83 | 2.57 | 99.5 | 0.78 | 8.64 | 0.78
